Molecular target: the molecule itself
Experiment: SEC-MALS; SEC on Superdex 200 10/300 GL with inline right angle / static light scattering detector; 200 ug protein injected; 50 mM NaH3PO4, 150 mM NaCl pH 7.2; 0.5 ml/min; 20 °C; detector calibrated with the monomeric peak of BSA

B1: talin-1 rod R3 subdomain fragment (amino acids 795-911) 4S mutant, His6-tagged (domain or fragment, mouse)
chain: SSSGPSASGTGAGRYDQATDTSLTVTENSFSSMGDAGEMVRQARILAQATSDLVNAIKADAEGESDLENSRKLLSAAKILADATAKMVEAAKGAAAHPDSEEQQQRSREAAEGSRMATNAAAQNAIKK
notes: 11 residue linker between the N-terminal His6-tag and the talin fragment; talin-1, mouse, R3 subdomain, residues 795-911, with all four destabilizing point mutations; not shown: His6, N-terminal, kept
stoichiometry N: 2

— PMC5472591, “Mechanical stability of talin rod controls cell migration and substrate sensing” (Scientific Reports, 2017)
